Measurements as given in paper PMC9482650, “Quantitative fragmentomics allow affinity mapping of interactomes” (Nature Communications, 2022).

T1: MPDZ_13, O75970
T1 sequence (O75970 1982-2070, limits assumed, looked up): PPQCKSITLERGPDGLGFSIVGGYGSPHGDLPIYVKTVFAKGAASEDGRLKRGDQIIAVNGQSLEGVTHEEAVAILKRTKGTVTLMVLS

T2: MAGI2_1, Q86UL8
T2 sequence (Q86UL8 12-111, limits assumed, looked up): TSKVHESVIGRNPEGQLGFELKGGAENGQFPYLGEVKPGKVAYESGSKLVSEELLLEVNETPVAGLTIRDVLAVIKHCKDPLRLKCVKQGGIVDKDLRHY

T3: APBA3_2, O96018
T3 sequence (O96018 480-570, limits assumed, looked up): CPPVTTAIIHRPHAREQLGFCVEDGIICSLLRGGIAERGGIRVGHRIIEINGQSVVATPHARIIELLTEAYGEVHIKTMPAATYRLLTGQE

T4: SIPA1L3, O60292
T4 sequence (O60292 961-1052, limits assumed, looked up): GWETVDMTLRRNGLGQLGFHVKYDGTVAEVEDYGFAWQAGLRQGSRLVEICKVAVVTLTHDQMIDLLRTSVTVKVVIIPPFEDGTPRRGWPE

T5: MPDZ_11, O75970
T5 sequence (O75970 1720-1817, limits assumed, looked up): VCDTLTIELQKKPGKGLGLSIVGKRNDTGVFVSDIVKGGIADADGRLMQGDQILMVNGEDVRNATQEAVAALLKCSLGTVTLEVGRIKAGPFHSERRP

T6: PTPN13_4, Q12923
T6 sequence (Q12923 1783-1878, limits assumed, looked up): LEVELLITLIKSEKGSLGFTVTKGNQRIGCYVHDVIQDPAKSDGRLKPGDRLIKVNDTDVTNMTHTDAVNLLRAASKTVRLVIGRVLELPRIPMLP

T7: NHERF1_2, O14745
T7 sequence (O14745 149-244, limits assumed, looked up): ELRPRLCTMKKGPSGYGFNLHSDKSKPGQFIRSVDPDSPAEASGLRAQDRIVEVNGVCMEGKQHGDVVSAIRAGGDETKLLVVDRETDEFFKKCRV

T8: GRIP1_1, Q9Y3R0
T8 sequence (Q9Y3R0 48-146, limits assumed, looked up): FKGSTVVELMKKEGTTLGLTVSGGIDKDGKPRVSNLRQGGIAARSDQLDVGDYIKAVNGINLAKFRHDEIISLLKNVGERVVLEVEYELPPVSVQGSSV

T9: SHANK2, Q9UPX8
T9 sequence (Q9UPX8 621-730, limits assumed, looked up): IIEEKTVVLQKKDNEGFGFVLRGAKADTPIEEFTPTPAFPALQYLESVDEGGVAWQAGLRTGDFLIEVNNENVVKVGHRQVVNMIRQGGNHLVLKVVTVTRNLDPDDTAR

T10: MPDZ_6, O75970
T10 sequence (O75970 1003-1099, limits assumed, looked up): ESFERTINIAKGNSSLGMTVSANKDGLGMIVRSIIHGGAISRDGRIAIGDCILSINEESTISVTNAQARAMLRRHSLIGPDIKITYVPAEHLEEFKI

T11: NHERF1_1, O14745
T11 sequence (O14745 9-104, limits assumed, looked up): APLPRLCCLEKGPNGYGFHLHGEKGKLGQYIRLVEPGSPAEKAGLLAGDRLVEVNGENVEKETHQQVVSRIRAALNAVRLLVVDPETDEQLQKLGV

T12: PARD6G, Q9BYG4
T12 sequence (Q9BYG4 153-261, limits assumed, looked up): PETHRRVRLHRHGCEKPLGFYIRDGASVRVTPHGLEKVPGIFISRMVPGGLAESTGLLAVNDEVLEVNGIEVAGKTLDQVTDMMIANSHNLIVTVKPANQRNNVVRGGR

T13: CNKSR1, Q969H4
T13 sequence (Q969H4 191-295, limits assumed, looked up): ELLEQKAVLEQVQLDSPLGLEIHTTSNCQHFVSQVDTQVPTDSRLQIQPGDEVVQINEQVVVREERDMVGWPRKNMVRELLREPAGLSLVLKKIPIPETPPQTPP

T14: PARD6B, Q9BYG5
T14 sequence (Q9BYG5 152-260, limits assumed, looked up): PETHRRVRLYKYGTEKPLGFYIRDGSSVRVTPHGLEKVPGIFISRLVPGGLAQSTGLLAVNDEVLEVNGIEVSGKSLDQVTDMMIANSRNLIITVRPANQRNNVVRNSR


Assays:
Assay in all cases: holdup assay
Design in all cases: key: below the threshold = too weak to quantify, mostly under pKd 3.1 to 4
Conditions in all cases: plain residues with an end cap or a label only (N-terminal biotin on a linker: ttds)
[1] = molecular target: T1, MPDZ_13, O75970
[2] = molecular target: T2, MAGI2_1, Q86UL8
[3] = molecular target: RGS3, P49796-9
Chain of RGS3, P49796-9 (P49796 other isoform, or with tags, fused parts or gaps): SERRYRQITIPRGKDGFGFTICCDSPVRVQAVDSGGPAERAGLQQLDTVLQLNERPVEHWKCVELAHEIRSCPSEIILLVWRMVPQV

[4] = molecular target: T3, APBA3_2, O96018
[5] = molecular target: T4, SIPA1L3, O60292
[6] = molecular target: T5, MPDZ_11, O75970
[7] = molecular target: T6, PTPN13_4, Q12923
[8] = molecular target: T7, NHERF1_2, O14745
[9] = molecular target: PDZRN4_2, Q6ZMN7
Chain of PDZRN4_2, Q6ZMN7 (Q6ZMN7 389-498): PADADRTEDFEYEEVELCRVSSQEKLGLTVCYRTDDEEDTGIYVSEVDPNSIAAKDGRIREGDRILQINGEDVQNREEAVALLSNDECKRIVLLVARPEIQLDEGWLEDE

[10] = molecular target: T8, GRIP1_1, Q9Y3R0
[11] = molecular target: T9, SHANK2, Q9UPX8
[12] = molecular target: T10, MPDZ_6, O75970
[13] = molecular target: T11, NHERF1_1, O14745
[14] = molecular target: T12, PARD6G, Q9BYG4
[15] = molecular target: T13, CNKSR1, Q969H4
[16] = molecular target: MAGIX, Q9H6Y5
Chain of MAGIX, Q9H6Y5 (Q9H6Y5 118-211): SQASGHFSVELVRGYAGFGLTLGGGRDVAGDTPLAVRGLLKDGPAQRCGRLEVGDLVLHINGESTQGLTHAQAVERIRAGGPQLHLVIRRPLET

[17] = molecular target: LIMK1, P53667
Chain of LIMK1, P53667 (P53667 155-268): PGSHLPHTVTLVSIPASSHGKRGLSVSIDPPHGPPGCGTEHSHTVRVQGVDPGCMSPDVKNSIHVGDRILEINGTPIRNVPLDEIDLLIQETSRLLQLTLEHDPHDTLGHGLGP

[18] = molecular target: T14, PARD6B, Q9BYG5
[19] = molecular target: Q5TCQ9
[20] = molecular target: Q9UMS6
[21] = molecular target: Q9P227
[22] = molecular target: O43166
[23] = molecular target: Q96FS4
[24] = molecular target: Q9H190

| Binder | pKd [1] | pKd [2] | pKd [3] | pKd [4] | pKd [5] | pKd [6] | pKd [7] | pKd [8] | pKd [9] | pKd [10] | pKd [11] | pKd [12] | pKd [13] | pKd [14] | pKd [15] | pKd [16] | pKd [17] | pKd [18] | further results |
| --- | --- | --- | --- | --- | --- | --- | --- | --- | --- | --- | --- | --- | --- | --- | --- | --- | --- | --- | --- |
| SSRTRRETQL [HPV16-E6, P03126] | below the threshold | below the threshold | below the threshold | below the threshold | below the threshold | below the threshold | below the threshold | 3.89 | below the threshold | below the threshold | below the threshold | below the threshold | 4.15 | below the threshold | below the threshold | below the threshold | below the threshold | below the threshold |  |
| RSLEEEESQL [GRASP, Q7Z6J2] | below the threshold | below the threshold | below the threshold | 4.18 | below the threshold | below the threshold | below the threshold | below the threshold | below the threshold | below the threshold | 4.33 | below the threshold | 4.46 | below the threshold | below the threshold | below the threshold | 4.27 | below the threshold | pKd [19]: below the threshold; pKd [20]: below the threshold; pKd [21]: below the threshold; pKd [22]: below the threshold; pKd [23]: below the threshold; pKd [24]: below the threshold |
| SRPQRTQTQV [HPV67-E6, A4U7F2] | below the threshold | below the threshold | below the threshold | below the threshold | below the threshold | below the threshold | below the threshold | below the threshold | below the threshold | below the threshold | below the threshold | below the threshold | below the threshold | below the threshold | below the threshold | below the threshold | below the threshold | below the threshold |  |
